Data from article PMC4072508, “Genome-Wide Prediction and Validation of Peptides That Bind Human Prosurvival Bcl-2 Proteins” (PLoS Computational Biology, 2014).

T1: Mcl-1, Q07820
T1 chain: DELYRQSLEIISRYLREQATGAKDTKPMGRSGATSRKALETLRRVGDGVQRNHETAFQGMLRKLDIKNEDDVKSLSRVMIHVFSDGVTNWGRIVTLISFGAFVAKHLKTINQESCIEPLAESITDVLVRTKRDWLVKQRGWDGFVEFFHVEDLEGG


Columns and labels:
Mcl-1, Q07820 = molecular target: T1, Mcl-1, Q07820; test: peptide SPOT array, c-Myc-tagged receptor at 1 uM or 100 nM, anti-c-Myc-Cy3
Bcl-xL, Q07817 = test: as above
Chain of Bcl-xL, Q07817 (Q07817 1-209): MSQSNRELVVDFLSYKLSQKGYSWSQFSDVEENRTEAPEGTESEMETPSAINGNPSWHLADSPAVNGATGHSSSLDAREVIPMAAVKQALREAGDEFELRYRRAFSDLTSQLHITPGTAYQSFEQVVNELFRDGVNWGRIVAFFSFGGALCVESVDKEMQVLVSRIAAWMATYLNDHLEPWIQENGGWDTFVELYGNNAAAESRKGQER

Binder	SPOT signal as a fraction of Bim BH3's signal on the same receptor and array (Mcl-1, Q07820)	SPOT signal as a fraction of Bim BH3's signal on the same receptor and array (Bcl-xL, Q07817)
AFTEREASEIMKSIGEAIQYLHSINI [MAPKAPK2]	0.02	0.02
CDLLGAKGKDDLYIGDHIFGDILKSK [NT5C2]	0.04	0.02
LSPGRSVTAGIIIVLDEILKGHTQDT [FLAD1]	0.01	0.01
TPSRSALSSELSLVGDTTGDTLEKFV [CREBBP]	0.01	0.02
RDPQGWVAGNDSARGDGAAGFTLPGF [MST1R]	0.02	0.01
RLAHEHHCLRIKILLDCYYCVSGLPE [ADCY8]	0.03	0.02
PSLSKELTSSLAGVGDVSFDSDSQFP [CRTC1]	0.01	0.01
SQGDKRVAFFDRKGADCLSKWVGESE	0.02	0.02
FRLAQMCGLHDVVHADELEELINYYQ [CLTC]	0.02	0.02
KNIAGALAFWMANASELLNFIKQDRD [MLLT4]	0.03	0.03
RIEMWISILELNELLEYAAVELHQAK	0.03	0.02
QQMHHNAATAMAQRLDMLRGLSPRES [NCOR2]	0.08	0.13
VDFYQPTCIVLQCGLDSLGCDRLGCF [HDAC3]	0.01	0.01
GSGLHGWAFTLKQFLEMYVAKFAAKG [EEF2]	0.12	0.25
DVGTGAGLLEIKKIGDEYFTFITDCK [CCT3]	0.01	0.01
SQGDKRVAFFMRKGADCLSKWVGESE	0.06	0.13
SKFVILSAHKLVFILDTLSRQAKAAD [BCAR1]	0.02	0.07
SKFVILSAHKDVFIGDTLTRQVTAQD [NEDD9]	0.02	0.02
KKCQDMIMTELTNALDDVVVFYNDKA [ITPR3]	0.02	0.02
GLTWDPVGKYIASQADDRSLKVWRTL [HIRA]	0.94	0.81
NKSLTTLGLVDSSLADQAAGKGKSKF	0.19	0.29
LRVSTKIGSCMKSVGEVMGIGRSFEE [CAD]	0.04	0.05
ERAISCMGQIICNLLDNLGSDLPNTL [CAND1]	0.01	0.02
NKSLTTLGLVISSLLDQAAGKGKSKF	0.18	0.26

Further lines, results first:

SPOT signal as a fraction of Bim BH3's signal on the same receptor and array (Mcl-1, Q07820)	SPOT signal as a fraction of Bim BH3's signal on the same receptor and array (Bcl-xL, Q07817)	Binder
0.12	0.18	CILNSFYGYVMRKGARWYSMEMAGIV [POLE]
0.03	0.05	AICIEEIGVWDKMYSDAFLNDSYLKY
0.01	0.01	DSLAKFAGRKDKDCGEDLLVEISEVL [PCM1]
0.02	0.02	DLSAVTLSRELQAMLEQLAENYHNTW [RYR1]
0.01	0.02	IGFFIAFGIADGKMGDQAKLMVDFFN
0.02	0.02	SHALICISHWILGIGDRHLNNFMVAM [PRKDC]
0.05	0.04	NKRHRPIGIGVQGLLDAFILMRYPFE
0.01	0.01	SPYVFNGGTIDAIAGEDFAIVASDTR [PSMB1]
0.03	0.02	AICIEEIGVWMKMYLDAFLNDSYLKY
0.02	0.02	QLSKPGAALYDQSIGEGFKEAVQYVL [SOS1]
0.01	0.02	IQQDLGCGASLGVISDNLLVTGGQGC [SCAP]
0.02	0.02	VLSRIEAGRSDKSVADEFGISKSTFY [TIGD7_3eA]
0.02	0.02	NKRHRPIGIGDQGLADAFILMRYPFE
0.01	0.01	SALETQVAAAVQALADDYLAQLSLEP [TRO]
0.03	0.03	IGFFIAFGIAMGKMLDQAKLMVDFFN
0.01	0.02	CALIAGATLHVAWLLDSQVILVQQGQ [PPM1F]
0.01	0.01	RCELQICGLAMADAGEYLCVCGQERT [OBSCN]
